According to patent US20020169118A1 (Amgen, published 2002):

Target: T1, TNF-β (lymphotoxin) (UniProt P01374 35-205, limits assumed)
T1 sequence (looked up): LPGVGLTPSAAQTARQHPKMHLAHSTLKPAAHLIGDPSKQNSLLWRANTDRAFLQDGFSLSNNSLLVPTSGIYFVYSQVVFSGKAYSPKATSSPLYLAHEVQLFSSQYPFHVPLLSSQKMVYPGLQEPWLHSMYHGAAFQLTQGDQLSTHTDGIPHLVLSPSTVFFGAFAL
Assay: preliminary competition binding tests; reference TNF-α

B1: TNF-BP (TNF binding protein), natural, purified from dialyzed urine of uraemia patients (receptor)
chain: DSVCPQGKYIHPQNNSICCTKCHKGTYLYNDCPGPGQDTDCRECESGSFTASENHLRHCLSCSKCRKEMGQVEISSCTVDRDTVCGCRKNQYRHYWSENLFQCFNCSLCLNGTVHLSCQEKQNTVCTCHAGFFLRENECVSCSNCKKSLECTKLCLPQIEN
modifications: glycoprotein; Asn-25 glycosylated (numbering of the TNF-BP cDNA sequence, Leu-1 = first residue after the signal peptide)
notes: Soluble extracellular part of the human TNF receptor; The main form (about 80% of the protein) starts at Asp-12; also called natural TNF-BP
affinity for TNF-β relative to its affinity for TNF-α: ~0.02 fold
